Experimental data from publication PMC6879718, “Mycobacterial OtsA Structures Unveil Substrate Preference Mechanism and Allosteric Regulation by 2-Oxoglutarate and 2-Phosphoglycerate” (mBio, 2019).
Blank lines part the entries; values can stand above or below the substance they belong to.

Tests used:
[1] = test system: Nc1nc2c(ncn2[C@@H]2O[C@H](COP(=O)(O)OP(=O)(O)O[C@H]3O[C@H](CO)[C@@H](O)[C@H](O)[C@H]3O)[C@@H](O)[C@H]2O)c(=O)[nH]1; experiment: OtsA kinetic parameters, continuous colorimetric coupled assay (L319I); type: biochemical, Mycobacterium thermoresistibile; conditions: other: L319I; G6P fixed at 10 mM for NDP-glucose, ADP-glucose […] for G6P; pH 7.5; 37.0 °C
[2] = test system: Nc1ncnc2c1ncn2[C@@H]1O[C@H](COP(=O)(O)OP(=O)(O)O[C@H]2O[C@H](CO)[C@@H](O)[C@H](O)[C@H]2O)[C@@H](O)[C@H]1O; experiment: as above; type: biochemical, Mycobacterium thermoresistibile; conditions: other: L319I; G6P fixed at 10 mM for NDP-glucose, ADP-glucose […] for G6P; pH 7.5; 37.0 °C
[3] = test system: O=C[C@H](O)[C@@H](O)[C@H](O)[C@H](O)COP(=O)(O)O; experiment: as above; type: biochemical, Mycobacterium thermoresistibile; conditions: other: L319I; G6P fixed at 10 mM for NDP-glucose, ADP-glucose […] for G6P; pH 7.5; 37.0 °C
[4] = test system: Nc1nc2c(ncn2[C@@H]2O[C@H](COP(=O)(O)OP(=O)(O)O[C@H]3O[C@H](CO)[C@@H](O)[C@H](O)[C@H]3O)[C@@H](O)[C@H]2O)c(=O)[nH]1; experiment: OtsA kinetic parameters, continuous colorimetric coupled assay (L319I, E367L); type: biochemical, Mycobacterium thermoresistibile; conditions: other: L319I, G6P fixed at 10 mM for NDP-glucose, ADP-glucose […] for G6P, pH 7.5, 37.0 °C
[5] = test system: Nc1ncnc2c1ncn2[C@@H]1O[C@H](COP(=O)(O)OP(=O)(O)O[C@H]2O[C@H](CO)[C@@H](O)[C@H](O)[C@H]2O)[C@@H](O)[C@H]1O; experiment: as above; type: biochemical, Mycobacterium thermoresistibile; conditions: other: L319I, G6P fixed at 10 mM for NDP-glucose, ADP-glucose […] for G6P, pH 7.5, 37.0 °C
[6] = test system: O=C[C@H](O)[C@@H](O)[C@H](O)[C@H](O)COP(=O)(O)O; experiment: as above; type: biochemical, Mycobacterium thermoresistibile; conditions: other: L319I, G6P fixed at 10 mM for NDP-glucose, ADP-glucose […] for G6P, pH 7.5, 37.0 °C
[7] = test system: Nc1nc2c(ncn2[C@@H]2O[C@H](COP(=O)(O)OP(=O)(O)O[C@H]3O[C@H](CO)[C@@H](O)[C@H](O)[C@H]3O)[C@@H](O)[C@H]2O)c(=O)[nH]1; experiment: OtsA kinetic parameters, continuous colorimetric coupled assay (L319I, V363F, E367L); type: biochemical, Mycobacterium thermoresistibile; conditions: other: L319I, G6P fixed at 10 mM for NDP-glucose, ADP-glucose […] for G6P, pH 7.5, 37.0 °C
[8] = test system: Nc1ncnc2c1ncn2[C@@H]1O[C@H](COP(=O)(O)OP(=O)(O)O[C@H]2O[C@H](CO)[C@@H](O)[C@H](O)[C@H]2O)[C@@H](O)[C@H]1O; experiment: as above; type: biochemical, Mycobacterium thermoresistibile; conditions: other: L319I, G6P fixed at 10 mM for NDP-glucose, ADP-glucose […] for G6P, pH 7.5, 37.0 °C
[9] = test system: O=C[C@H](O)[C@@H](O)[C@H](O)[C@H](O)COP(=O)(O)O; experiment: as above; type: biochemical, Mycobacterium thermoresistibile; conditions: other: L319I, G6P fixed at 10 mM for NDP-glucose, ADP-glucose […] for G6P, pH 7.5, 37.0 °C
[10] = test system: Nc1ncnc2c1ncn2[C@@H]1O[C@H](COP(=O)(O)OP(=O)(O)O[C@H]2O[C@H](CO)[C@@H](O)[C@H](O)[C@H]2O)[C@@H](O)[C@H]1O; experiment: OtsA kinetic parameters, continuous colorimetric coupled assay (R213E); type: biochemical, Mycobacterium thermoresistibile; conditions: other: R213E; G6P fixed at 10 mM for NDP-glucose, ADP-glucose […] for G6P; pH 7.5; 37.0 °C
Protocol: (§1) Formation of T6P was assessed by a continuous colorimetric assay that followed the release of NDP by measuring the oxidation of NADH at 340 nm, in the presence of pyruvate kinase and lactate dehydrogenase. All reagents used were obtained from Sigma-Aldrich. The enzymatic reactions (200-μl reaction mixture) were performed at 37°C, and the reaction mixtures contained 50 mM Tris (pH 7.5), 200 mM NaCl, 10 mM MgCl2, 50 mM KCl, 0.3 mM NADH, 2.5 mM phosphoenolpyruvate (PEP), 10 units of pyruvate kinase-lactate dehydrogenase, 0.1 μM enzyme, and various concentrations of G6P and NDP-glucose to determine kinetic parameters.

[11] = test system: O=C[C@H](O)[C@@H](O)[C@H](O)[C@H](O)COP(=O)(O)O; experiment: as above; type: biochemical, Mycobacterium thermoresistibile; conditions: other: R213E; G6P fixed at 10 mM for NDP-glucose, ADP-glucose […] for G6P; pH 7.5; 37.0 °C
Protocol: as §1

[12] = test system: Nc1ncnc2c1ncn2[C@@H]1O[C@H](COP(=O)(O)OP(=O)(O)O[C@H]2O[C@H](CO)[C@@H](O)[C@H](O)[C@H]2O)[C@@H](O)[C@H]1O; experiment: OtsA kinetic parameters, continuous colorimetric coupled assay (R384E); type: biochemical, Mycobacterium thermoresistibile; conditions: other: R384E; G6P fixed at 10 mM for NDP-glucose, ADP-glucose […] for G6P; pH 7.5; 37.0 °C
Protocol: as §1

[13] = test system: O=C[C@H](O)[C@@H](O)[C@H](O)[C@H](O)COP(=O)(O)O; experiment: as above; type: biochemical, Mycobacterium thermoresistibile; conditions: other: R384E; G6P fixed at 10 mM for NDP-glucose, ADP-glucose […] for G6P; pH 7.5; 37.0 °C
Protocol: as §1

[14] = test system: Nc1nc2c(ncn2[C@@H]2O[C@H](COP(=O)(O)OP(=O)(O)O[C@H]3O[C@H](CO)[C@@H](O)[C@H](O)[C@H]3O)[C@@H](O)[C@H]2O)c(=O)[nH]1; experiment: OtsA kinetic parameters, continuous colorimetric coupled assay (V363F); type: biochemical, Mycobacterium thermoresistibile; conditions: other: V363F; G6P fixed at 10 mM for NDP-glucose, ADP-glucose […] for G6P; pH 7.5; 37.0 °C
[15] = test system: Nc1ncnc2c1ncn2[C@@H]1O[C@H](COP(=O)(O)OP(=O)(O)O[C@H]2O[C@H](CO)[C@@H](O)[C@H](O)[C@H]2O)[C@@H](O)[C@H]1O; experiment: as above; type: biochemical, Mycobacterium thermoresistibile; conditions: other: V363F; G6P fixed at 10 mM for NDP-glucose, ADP-glucose […] for G6P; pH 7.5; 37.0 °C
[16] = test system: O=C[C@H](O)[C@@H](O)[C@H](O)[C@H](O)COP(=O)(O)O; experiment: as above; type: biochemical, Mycobacterium thermoresistibile; conditions: other: V363F; G6P fixed at 10 mM for NDP-glucose, ADP-glucose […] for G6P; pH 7.5; 37.0 °C
[17] = target: Mycobacterium thermoresistibile OtsA (Mycobacterium thermoresistibile (DSM 44167)); experiment: not stated; in solution; the paper does not tell by which method the tetramer was seen
[18] = target: Mycobacterium thermoresistibile OtsA (Mycobacterium thermoresistibile (DSM 44167)); experiment: crystal structure; apo form in space group I4(1)22, ADP-G6P ternary complex in P6(2)22, one protomer per asymmetric unit each; sitting-drop vapor diffusion at 18°C

Substance: M. thermoresistibile OtsA L319I (Mycolicibacterium thermoresistibile ATCC 19527; L319I)
Km [1]: 350 ± 40 µM
kcat [1]: 3.1 ± 0.1 s⁻¹
kcat/Km [1]: 8900 ± 1400 M⁻¹ s⁻¹
Km [2]: 710 ± 180 µM
kcat [2]: 8.4 ± 0.7 s⁻¹
kcat/Km [2]: 12000 ± 2000 M⁻¹ s⁻¹
Km [3]: 3300 ± 200 µM
kcat [3]: 6.4 ± 0.2 s⁻¹
kcat/Km [3]: 1900 ± 200 M⁻¹ s⁻¹

Substance: M. thermoresistibile OtsA L319I, E367L (Mycolicibacterium thermoresistibile ATCC 19527; E367L/L319I)
Km [4]: 700 ± 50 µM
kcat [4]: 9.2 ± 0.4 s⁻¹
kcat/Km [4]: 13000 ± 2000 M⁻¹ s⁻¹
Km [5]: 630 ± 40 µM
kcat [5]: 14 ± 1 s⁻¹
kcat/Km [5]: 22000 ± 3000 M⁻¹ s⁻¹
Km [6]: 3700 ± 200 µM
kcat [6]: 21 ± 1 s⁻¹
kcat/Km [6]: 5700 ± 500 M⁻¹ s⁻¹

Substance: M. thermoresistibile OtsA L319I, V363F, E367L (Mycolicibacterium thermoresistibile ATCC 19527; E367L/L319I/V363F)
Km [7]: 900 ± 60 µM
kcat [7]: 16 ± 1 s⁻¹
kcat/Km [7]: 18000 ± 2000 M⁻¹ s⁻¹
Km [8]: 1300 ± 100 µM
kcat [8]: 19 ± 1 s⁻¹
kcat/Km [8]: 15000 ± 2000 M⁻¹ s⁻¹
Km [9]: 3200 ± 200 µM
kcat [9]: 17 ± 1 s⁻¹
kcat/Km [9]: 5300 ± 600 M⁻¹ s⁻¹

Substance: M. thermoresistibile OtsA R213E (Mycolicibacterium thermoresistibile ATCC 19527; R213E)
Km [10]: 310 ± 10 µM
kcat [10]: 56 ± 2 s⁻¹
kcat/Km [10]: 180000 ± 13000 M⁻¹ s⁻¹
Km [11]: 3300 ± 300 µM
kcat [11]: 33 ± 2 s⁻¹
kcat/Km [11]: 10000 ± 1000 M⁻¹ s⁻¹

Substance: M. thermoresistibile OtsA R384E (Mycolicibacterium thermoresistibile ATCC 19527; R384E)
Km [12]: 1900 ± 200 µM
kcat [12]: 3.2 ± 0.1 s⁻¹
kcat/Km [12]: 1700 ± 200 M⁻¹ s⁻¹
Km [13]: 2900 ± 200 µM
kcat [13]: 2.1 ± 0.2 s⁻¹
kcat/Km [13]: 770 ± 50 M⁻¹ s⁻¹

Substance: M. thermoresistibile OtsA V363F (Mycolicibacterium thermoresistibile ATCC 19527; V363F)
Km [14]: 740 ± 80 µM
kcat [14]: 14 ± 1 s⁻¹
kcat/Km [14]: 19000 ± 3000 M⁻¹ s⁻¹
Km [15]: 600 ± 30 µM
kcat [15]: 11 ± 1 s⁻¹
kcat/Km [15]: 18000 ± 2000 M⁻¹ s⁻¹
Km [16]: 3100 ± 200 µM
kcat [16]: 19 ± 1 s⁻¹
kcat/Km [16]: 6100 ± 700 M⁻¹ s⁻¹

stoichiometry N [17]: 4
stoichiometry N [18]: 4
Substance: Mycobacterium thermoresistibile OtsA (enzyme)
